# Reference: the DeepSol protein solubility set
# Assay: soluble on expression in E. coli; label from the status in PepcDB or PDB records
row,Sequence,soluble on expression in E. coli
1,MCMGTRSKRSERGRCRMHLERCVCPAIPRYDLTTRVVLVMHHREYPKPTATGPLALAALPNSELRIHGERDSLLDLGDLATPERRTLLLYPGDDVPVLTRELLERDRRPVTLVVPDGTWRQASRMGRRLPGLDHAEMVRLPEGLPTEWGIRRENHPQGLATFEAIARALGIIESPAVQTGLEELFRLMVRRTLSAGGRAILEHHHHHH,soluble
2,MPKRIVYNISSDFQLKSLLGEGAYGVVCSATHKPTGEIVAIKKIEPFDKPLFALRTLREIKILKHFKHENIITIFNIQRPDSFENFNEVYIIQELMQTDLHRVISTQMLSDDHIQYFIYQTLRAVKVLHGSNVIHRDLKPSNLLINSNCDLKVCDFGLARIIDESAADNSEPTGQQSGMVEFVATRWYRAPEVMLTSAKYSRAMDVWSCGCILAELFLRRPIFPGRDYRHQLLLIFGIIGTPHSDNDLRCIESPRAREYIKSLPMYPAAPLEKMFPRVNPKGIDLLQRMLVFDPAKRITAKEALEHPYLQTYHDPNDEPEGEPIPPSFFEFDHYKEALTTKDLKKLIWNEIFS,soluble
3,MKQNKLHYTTMIMTQFPDISIQSVESLGEGFRNYAILVNGDWVFRFPKSQQGADELNKEIQLLPLLVGCVKVNIPQYVYIGKRSDGNPFVGYRKVQGQILGEDGMAVFPDDAKDRLALQLAEFMNELSAFPVETAISAGVPVTNLKNKILLLSEAVEDQVFPLLDESLRDYLTLRFQSYMTHPVYTRYTPRLIHGDLSPDHFLTNLNSRQTPLTGIIDFGDAAISDPDYDYVYLLEDCGELFTRQVMAYRGEVDLDTHIRKVSLFVTFDQVSYLLEGLRARDQDWISEGLELLEEDKANNFGANSA,not soluble
4,KAGQVDTNDLWSSIPVSPDEYITQRLPILVARMREQWSNNDHVKRYIDLCRRNIVGPRGIVMQAQSRKSRSGALDTAINDAIETWWQDWGRKGQCEVTGKLSWREIQTLCVETCARDGEFIARKIYGTHAGPHGFCLQLIDPLRLPVRYQMLKTDQTGGFVRQGIEFNRFGKPLAYHFSSIDERDTYYYSINGRGYIRVPAEEVIHIFKPVMVGQRRGLPWAATSLLRLHHLQGFEEAAVQNARAAASKMGFVCYPEGVGPRADEQENVAQTIQMNAGPLAIHELPQGAEFQDWNPQYPSGEFGLFTKAAKQSLAAGMDLSYHALSGDLADVNYSSIRQGTLDERERWKEDQQ,not soluble
5,MGSDKIHHHHHHMDVENIFRDVKLSKTEMTVLRFIQNDPEQCIRQGVRAVAEQCYSNPSSLVRLAKKLKFSGWLELVYFIKFNITMPKLDVTNDIDYMSVQPEEALTPLLASLNQQRILIHGSGFSQLIAQYIYNKFLVTGVNASLALWPDYEILEQKNAACFDSIWIISKSGRSSSALNWVKALEGKEINLVCFTGDYQSPLAQAADTAFIIHDPQKFDDDIYWSNPFFGYCILGFERLLKMWFTSLRSNS,not soluble
6,MSLTQGSVIFTQNRPGLDEKIFKIYKFKTMSDERDEKGELLSDELRLKAFGKIVRSLSLDELLQLFNVLKGDMSFVGPRPLLVEYLPLYNKEQKLRHKVRPGITGWAQVNGRNAISWQKKFELDVYYVKNISFLLDLKIMFLTALKVLKRSGVSKEGHVTTEKFNGKNEGHHHHHH,not soluble
7,MSTPTGQPIGLGLPDAPLPVLAPRRKTRQLMVGNVGVGSDYPVSVQSMTTTKTHDVNATLQQIAQLTASGCDIVRVACPKTVDAEALPAIAKKSPIPVIADIHFQPKYIFSAIDAGCAAVRVNPGNIKEFDGRVKEVAKAAGDAGIPIRIGVNAGSLDKRIMEKYGKATPEALVESALWEAGLFEDCGFGDIAISVKHNDPVIMVEAYRQLAAQSDYPLHLGVTEAGPAFQGTIKSSVAFGSLLSQGIGDTIRVSLSADPVEEIKVGDQILQSLNLRKRGLEIVSCPSCGRAQVDVYSLAEEVTAALDGMSIPLRVAVMGCVVNGPGEARDADLGVASGNGKGQIFVRGEVIKTVPESQIVETLIEEAVRLAEAEGLEIEEGAGPQVKITR,not soluble
8,MIGEIPGVAAGQPYNSRRLAHEAGVHRPLQAGICGTKATGAESIVVSGGYKDDEDYGDVIIYTGHGGRDSAGNQVSDQSLDDSGNAALVTSYLRGLPVRVIRGSQSGSPFAPSNGYRYDGLYRVASYTSKLGIDGFLIWQFRMEAYEETPTPKITKVRALFAEPTDCAKQDPVAASGTEQPERVTSMVQRIVRSSAIADTVKAWHQDQCQTCGIHIEVPGGFYSEGAHIQALGRPHNGPDRTDNMLCLCPNCHVMLDAGAIVLSDDLIVSKNGQLVGPLRTHPKHKVNIECVRRHRERWRQLEHHHHHH,not soluble
9,MKTPALPTVQSPLLSSLPGVKHAFFTRQGGVSKGIYDSLNVGRGSQDEPADVEENRARIARWFGGGPEDLNVCYQIHSTIAIVADGSWGDARPEGDAVVSKTPGVICGAMAADCAPVLLVDPEARIVAAAHAGWRGALDGVVQSAVDRMVELGASPANITGVVGPCIGPKSYEVGLEFLHRFEADCPGSGRFFKPGASEDKRFFDLPAFVLDRLATAGVERREWVGRDTRAEEEWFFSNRRAFLNNDGDYGRLLSAITLEA,soluble
10,MSKLPEIGTKISLTDKAYEIIKDAIMTNIFKPGELLIEEKLAEQLAISRTPLRAALRKLAYDHLVEINSSRNVIVANIGQKDVEEITVVREVLEPLAVKELENNIGEDELKKLEEILCRQKKAVLEDNYEELIKMEYEFHVAIGELTHNKWLHGMLKDINTIVQRYLILSGSLNKYKEVAIKEHEVIISEIRQGNYDKAVESMKCHISNVSSRMLK,not soluble
11,MGSDKIHHHHHHMKKLLLPLIIMLLVLAACGNQGEKNNKAETKSYKMDDGKTVDIPKDPKRIAVVAPTYAGGLKKLGANIVAVNQQVDQSKVLKDKFKGVTKIGDGDVEKVAKEKPDLIIVYSTDKDIKKYQKVAPTVVVDYNKHKYLEQQEMLGKIVGKEDKVKAWKKDWEETTAKDGKEIKKAIGQDATVSLFDEFDKKLYTYGDNWGRGGEVLYQAFGLKMQPEQQKLTAKAGWAEVKQEEIEKYAGDYIVSTSEGKPTPGYESTNMWKNLKATKEGHIVKVDAGTYWYNDPYTLDFMRKDLKEKLIKAAK,not soluble
12,MGSDKIHHHHHHMTSARRQLIDANATPFYHVINRCVRRAFLCGEDKLTGRSYEHRRGWIVDKIKVLSSIFCIDICAYAVMNNHYHLVLKINVEKAKSLSQREIISRWCQITKGHAVATKYMNGDVLIDGEIMLLDALLAEWHERLSSVSWFMRCLNEEIARKANREDECKGAFWEGRFKSQALLDEQALLACMMYVDLNPIRAGVADSLQSSDFTSIQERISLLNLQRDAFTSLKTQVKSVNKLPQIIHQSLAKFDGPTHQSQQTGIPFHFADYLELIDWTGRAIRLDKKGYIDNQRPKLLHELGIASDAWLTSAKEFRRQYSGISGRWDSMCEFKKQHNSGKWCKGKASSQALHP,not soluble
13,MKSLVKVSLAALALAFAVSAYAAEKELIVATDTAFVPFEFKQGDKYVGFDIDLWDAIAKKLDLKYTLKPMDFSGIIPALQTKNVDLALAGITITDERKKAVDFSDGYYNSGLLVMVKADNNDIKSEADLQGKVLAVKSGTGSVDYAKANIKTKDLRQFPNIDNAYLELGTGRADAVLHDTPNILYFIKTAGNGQFKAVGESIKAQQYGVAFPQGSDLREKVNAALKSLKEDGTYAEIYKKWFGVEPK,not soluble
14,MKAPELLLPAGGLERMRAAYDYGADAVYAGSPRYSLRARNNEFAKLDVLEQGIKEAHERNKKFFLTVNTLPHNSKLKTFVADMEPLIAMKPDALIMADPGLIMTVREKWPEMPIHLSVQANTTNYWGVKFWQNIGVERIILSRELSMEEIAEIRQECPDIELEVFIHGALCIAYSGRCLLSGYFNHRDPNQGTCTNSCRWDYKVHNATESDAGDAQLLQGFNFEKAQEEANQNFEGINGQKRHPYADKVFLIEESNRPGEMMPIMEDEHGTYIMNSKDLRGIEVVEKLAKIGVDSLKVEGRTKSLYYVARVAQSYRKAIDDAVAGRPFDYSLLSELEGLANRGYTSGFLERHQTQDYQNYLTGHSTAKQSQYVGHVTEIDENGWATVEVKNRFAVSDSLEIIHPSGNQTIKLEQMTRKGQPVDVAPGNGIQVKIPNMQGKEKALIARVLNP,not soluble
